The text below walks through data of US9120869 (UNIVERSITY OF SOUTH FLORIDA A FLORIDA NON PROFIT, dated 2015).

Assay [1] addresses T1, Duffy antigen receptor for chemokines (DARC) on Duffy-positive human erythrocytes (human, UniProt Q16570 1-336).
T1 construct: whole, on cells; also called Duffy blood group antigen; Duffy antigen surface receptor
T1 sequence: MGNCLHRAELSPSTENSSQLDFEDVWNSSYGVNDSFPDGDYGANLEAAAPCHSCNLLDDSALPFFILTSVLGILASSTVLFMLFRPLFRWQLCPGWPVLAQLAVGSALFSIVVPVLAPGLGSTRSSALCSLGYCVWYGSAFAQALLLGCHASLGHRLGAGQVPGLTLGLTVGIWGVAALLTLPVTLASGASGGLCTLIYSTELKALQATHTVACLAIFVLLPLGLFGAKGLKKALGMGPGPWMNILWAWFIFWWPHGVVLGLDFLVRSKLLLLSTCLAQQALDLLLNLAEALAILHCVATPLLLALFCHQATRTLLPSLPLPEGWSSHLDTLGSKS
In words: erythrocyte binding assay, Western blot.

For assay [2], the target named is T1, Duffy antigen receptor for chemokines …. In words: COS7 erythrocyte-binding assay (rosettes).

B1: recombinant DBPII-Sal1 (refolded ligand domain, region II, of Plasmodium vivax Duffy binding protein, Sal1 variant) (ligand)
chain: NHAFLQNTVMKNCNYKRKRRERDWDCNTKKDVCIPDRRYQLCMKELTNLVNNTDTNFHRDITFRKLYLKRKLIYDAAVEGDLLLKLNNYRYNKDFCKDIRWSLGDFGDIIMGTDMEGIGYSKVVENNLRSIFGTDEKAQQRRKQWWNESKAQIWTAMMYSVKKRLKGNFIWICKLNVAVNIEPQIYRWIREWGRDYVSELPTEVQKLKEKCDGKINYTDKKVCKVPPCQNACKSYDQWITRKKNQWDVLSNKFISVKNAEKVQTAGIVTPYDILKQELDEFNEVAFENEINKRDGAYIEL
notes: also called recombinant Sal1; rSal1; not shown: C-terminal histidine tag from pET21a+
As to B1, in assay [1], the binding result is recorded as “binds”.

B2: COS7-expressed PvDBP-RII variant Sal 1 (ligand)
chain: NHAFLQNTVMKNCNYKRKRRERDWDCNTKKDVCIPDRRYQLCMKELTNLVNNTDTNFHRDITFRKLYLKRKLIYDAAVEGDLLLKLNNYRYNKDFCKDIRWSLGDFGDIIMGTDMEGIGYSKVVENNLRSIFGTDEKAQQRRKQWWNESKAQIWTAMMYSVKKRLKGNFIWICKLNVAVNIEPQIYRWIREWGRDYVSELPTEVQKLKEKCDGKINYTDKKVCKVPPCQNACKSYDQWITRKKNQWDVLSNKFISVKNAEKVQTAGIVTPYDILKQELDEFNEVAFENEINKRDGAYIEL
notes: The (mut) plasmid differs from (original) by a PvuII to EcoRI site change; also called DBPII-Sal1 expressed on surface of COS7 cells; pEGFP-Sal 1 (original); not shown: C-terminal GFP tag (pEGFP-N1)
With B2, in assay [2], the binding result is reported as “binds”.
